This passage reports Kd results from patent US20220025008A1 (FAPON BIOTECH, published 2022).

For this assay, the target named is T1, Recombinant NT antigen (N-terminal pro-brain natriuretic peptide, NT-proBNP) (human, UniProt P16860 27-102).
T1 construct: domain: N-terminal pro-brain natriuretic peptide (NT-proBNP); also called recombinant NT protein; N-terminal pro-B-type natriuretic peptide
T1 sequence (looked up): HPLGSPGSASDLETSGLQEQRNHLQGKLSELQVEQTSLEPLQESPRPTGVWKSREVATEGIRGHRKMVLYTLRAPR
The assay is described as follows: indirect ELISA, KD calculated from half-max OD at 4 coating concentrations. The protocol:
Recombinant NT antigen was diluted with coating solution to 1 μg/ml a microplate overnight at 4° C.; which was washed twice with washing solution and patted dry on the next day; with addition of blocking solution (20% BSA+80% PBS) at 120 μL per well at 37° C. for 1 h and patted dry; added the diluted NT monoclonal antibody, 100 μL/well at 37° C. for 30 min (partial supernatant for 1 h); washed 5 times with washing solution and patted dry; added rabbit anti-goat IgG-HRP […] per well at 37° C. for 30 min; washed 5 times with washing solution and patted dry; added color developing solution A (50 μL/well), added color developing solution B (50 μL/well) for 10 min; added stop solution, 50 μL/well; followed by reading the OD value at 450 nm (reference 630 nm) on the microplate reader.
Data from the enzyme immunoassay indirect method were analyzed in the same way as the activity identification, with four gradients of 3 μg/ml, 1.5 μg/ml, 0.75 μg/ml and 0.375 μg/ml for coating; the antibody was diluted from 1000 ng/ml by 2 times to 0.977 ng/ml for loading sample. OD values corresponding to different antibody concentrations at different coating concentrations were obtained. Under the same coating concentration, data were plotted logarithmically with the antibody concentration as the abscissa and the OD value as the ordinate.

Changes are numbered by the printed parent chain.

A word on the Kd: it is a measure of binding affinity in units of concentration.

B1: Mutation 1 (antibody, V domains shown)
VH: QVRLQESGPSQVKPAQTLSLTCAISGFSITTYYIDWVRHTPGKPPEWLAQMTKDGNAVHQPTIRSRLSITRDTSKSQVFLKLTGVTTEDTAVYYCVRGIIDWGPGLLVTVSS
VL: QAVLTQPSSVSRSLGQTVSITCSGSSDQVGFGDYVNWFQLIPGSAPKTLIFGATSRIRGVPDRFSGSRSGNTATLTINSLQAEDEADYYCGSPNSRGGYVFGSGTRLTVLS
notes: also called mutant 1 antibody
Turning to B1, the Kd is 1.73 nM.

B2: WT 1-5 (antibody)
heavy: QVRLQESGPSQVKPAQTLSLTCAISGPSLTTYYLDWVRHTPGKPPEWLAQMTKDANAVHNPTVRSRLSITRDTSKSQVFLKLTGVTTEDTAVYYCVKGLIDFGPGLLVTVSSASTTPPKVYPLTSCCGDTSSSIVTLGCLVSSYMPEPVTVTWNSGALTSGVHTFPAILQSSGLYSLSSVVTVPASTSGAQTFICNVAHPASSTKVDKRVEPGCPDPCKHCRCPPPELPGGPSVFIFPPKPKDTLTISGTPEVTCVVVDVGQDDPEVQFSWFVDNVEVRTARTKPREEQFNSTFRVVSALPIQHQDWTGGKEFKCKVHNEGLPAPIVRTISRTKGQAREPQVYVLAPPQEELSKSTLSVTCLVTGFYPDYIAVEWQKNGQPESEDKYGTTTSQLDADGSYFLYSRLRVDKNSWQEGDTYACVVMHEALHNHYTQKSISKPPGK
light: QAVLTQPSSVSRSLGQTVSITCSGSSDQVGPGDYLNWFQLIPGSAPKTLIFAASSRIRGVPDRFSGSRSGNTATLTINSLQAEDEADYYCGSANSRNYVWGSGTRLTVLSQPKSAPSVTLFPPSKEELDTNKATVVCLISDFYPGSVNVVWKADGSTINQNVKTTQASKQSNSKYAASSYLTLTGSEWKSKSSYTCEVTHEGSTVTKTVKPSECS
Regarding B2, the Kd is 22.6 nM.

B3: Mutation 1-39 (antibody)
heavy: B2 heavy with P27F, L34I, A55G, V63L, K97R
light: B2 light with Q28N, P31F, L35V, A52G, S54Y, A93G, W100F
Consider B3, for which the Kd was 2.45 nM.

B4: Mutation 1-7 (antibody)
heavy: B2 heavy with P27F, L29V, A55G, N60Q, K97R, L99I
light: B2 light with Q28N, P31F, A52G, I57L, A93G, W100F
B4: the Kd was 1.53 nM.

B5: Mutation 1-3 (antibody)
heavy: B2 heavy with P27F, L34I, A55G, V63L, K97R
light: B2 light with Q28N, P31F, L35V, A52G, S54Y, W100F
As to B5, the Kd is 1.52 nM.

B6: Mutation 1-15 (antibody)
heavy: B2 heavy with P27F, L29V, L34I, A55G, V63L, K97R
light: B2 light with Q28N, P31F, L35V, A52G, S54T, W100F
Regarding B6, the Kd is 1.76 nM.

B7: Mutation 1-37 (antibody)
heavy: B2 heavy with P27F, L29I, A55G, V63I, K97R, L99I
light: B2 light with P31F, A52G, S54T, I57L, W100F
As for B7, the Kd is 1.57 nM.

B8: Mutation 1-31 (antibody)
heavy: B2 heavy with P27F, A55G, N60Q, K97R, L99I
light: B2 light with Q28N, P31F, A52G, S54T, I57L, A93G, W100F
Consider B8, for which the Kd was 1.84 nM.

B9: Mutation 1-25 (antibody)
heavy: B2 heavy with P27F, L29V, A55G, V63I, K97R, L99I
light: B2 light with P31F, A52G, I57L, A93P, W100F
For B9, the Kd was 2.16 nM.

B10: Mutation 1-10 (antibody, V domains shown)
VH: B1 VH with I34L, Q60N, I99V
VL: QAVLTQPSSVSRSLGQTVSITCSGSSDQVGFGDYLNWFQLIPGSAPKTLIFGASSRLRGVPDRFSGSRSGNTATLTINSLQAEDEADYYCGSANSRNYVFGSGTRLTVLS
Turning to B10, the Kd was 3.2 nM.

B11: Mutation 1-34 (antibody, V domains shown)
VH: B1 VH with I29V, I34L, Q60N, I99V
VL: B10 VL with S54Y
On to B11, for which the Kd was 3.12 nM.

B12: Mutation 1-51 (antibody)
heavy: B2 heavy with P27F, L29V, L34I, A55G, V63L, K97R
light: B2 light with Q28N, P31F, L35V, A52G, S54Y, W100F
B12: the Kd is 0.944 nM.

B13: WT 1-1 (antibody, V domains shown)
VH: B1 VH with F27P, I29V, G55A, Q60N, R97K, I99V
V domain: B10 VL with Q28N, F31P, L35I, G52A, S54Y, L57I, F100W
B13: the Kd was 17.8 nM.

B14: Mutation 1-22 (antibody, V domains shown)
VH: B1 VH with I29L, I34L, Q60N, I99V
VL: B10 VL with S54Y
With B14, the Kd is 2.07 nM.

B15: Mutation 1-1 (antibody)
heavy: B2 heavy with P27F, L29I, A55G, V63I, K97R, L99I
light: B2 light with P31F, A52G, S54T, I57L, A93P, W100F
With B15, the Kd is 2.51 nM.

B16: Mutation 1-13 (antibody)
heavy: B2 heavy with P27F, A55G, V63I, K97R, L99I
light: B2 light with P31F, A52G, S54Y, I57L, A93P, W100F
Consider B16, for which the dissociation constant Kd is 2.09 nM.

B17: Mutation 1-27 (antibody)
heavy: B2 heavy with P27F, L29I, L34I, A55G, V63L, K97R
light: B2 light with Q28N, P31F, L35V, A52G, W100F
For the molecule B17, the dissociation constant (Kd) is 0.855 nM.

B18: Mutation 1-49 (antibody)
heavy: B2 heavy with P27F, A55G, V63I, K97R, L99I
light: B2 light with P31F, A52G, S54T, I57L, A93P, W100F
Take B18: the Kd is 6.83 nM.

B19: WT 1-2 (antibody, V domains shown)
VH: B1 VH with F27P, I29L, G55A, I63L, R97K, I99V
V domain: B10 VL with Q28N, F31P, G52A, L57I, A93P, F100W
For the molecule B19, the Kd was 3.48 nM.
